The results in this text go back to patent US5508261A, “Analogs of glycoprotein hormones having altered receptor binding specificity and activity and methods for preparing and using same” (University of Medicine & Dentistry of New Jersey, priority 1995, dated 1996).

Assay [1] relates to bovine testes FSH receptors. Kind of assay: Inhibition of 125I-hFSH binding to bovine testes tissue homogenates (radioligand receptor assay). The conditions noted are these: concentration of recombinant hFSH for 50% inhibition of 125I-hFSH binding divided by that of analog. From the text: (§1) The term "N.D." means not determined because concentrations of analog were not employed high enough to detect 50% inhibition.
(§2) An aliquot of the ligation mixture was taken and used to transform DH5-alpha strain E. coli. (obtained from Bethesda Research Laboratories, Gaithersburg, Md.). Plasmid DNAs from ampicillin-resistant DH5-alpha clones were screened by digestion with BglII (which is unique to vectors containing the cassette) and EcoRI (which cuts in the vector). Positive clones were identified by the presence of two fragments (approximately 0.8 Kbp and 2.9 Kbp). […] After the DNA was subjected to a dideoxy sequencing procedure to confirm that it encoded "GT" (Table 1), the plasmid DNA was then cotransfected into COS-7 cells (obtained from the American Type Culture Collection) along with pSVL-hCG-alpha, a pSVL-based plasmid encoding the human glycoprotein hormone alpha-subunit (10, 21), using a DEAE-dextran procedure (10).

Assay [2] concerns rat luteal ovarian LH receptors. In words: Inhibition of 125I-hCG binding to rat corpora luteal LH receptors (radioligand receptor assay). The conditions noted are these: concentration of recombinant hCG for 50% inhibition of 125I-hCG binding divided by that of analog.
Excerpt: as §1, §2

B1: eCG: equine gonadotropin control (text calls the control eLH, equine lutropin) (protein)
chain: SRGPLRPLCRPINATLAAEKEACPICITFTTSICAGYCPSMVRVMPAALPAIPQPVCTYRELRFASIRLPGCPPGVDPMVSFPVALSCHCGPCQIKTTDCGVFRDQPLACAPQASSSSKDPPSQPLTSTSTPTPGASRRSSHPLPIKTS
Regarding B1, in assay [1], the “Activity at FSH RECEPTORS relative to that of hFSH” value was found to be 0.18. Besides, the “Activity at LH RECEPTORS relative to that of hCG” value in assay [2] is listed as 0.53.
